Results as given in the supplement of paper PMC6757056.
± gives the standard deviation of the averaged measurements.

B1: library; a variant is named by its letters at N, in order (parent)
chain: GCUGUCACCGAGAAACUGUGAAGUAUAUCUUAAACCUGGGCACUUAAAAGAUAUAUGGAGUUAGUAGUGCAACCUGCUCGGUCUGAUGAGUCCNNNNNNGGACGAAACAGC

Experiments:
cyclic di-GMP [1] = variants of: B1; assay: normalized RNA/DNA level without ligand (relative to sTRSVctl = 100) (log10 (% of sTRSVctl)); HEK293T; ligand: cyclic di-GMP (c-di-GMP-II aptamer); higher = less ribozyme self-cleavage, higher mRNA level; settings: reporter: mCherry (pCS4076), ligand present: no
Method in brief: (§1)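 For each 6-well well, 4 µg of library plasmid encoding mCherry-linked ribozyme switches, or eGFP-linked ones in some ligand experiments, was transfected into HEK293T. Any ligand was added 1 h before transfection, and RNA was extracted with EDTA 72 h after it, then reverse-transcribed, amplified, barcoded and sequenced. RNA level was obtained by dividing RNA reads by DNA reads, normalizing to a spiked-in non-cleaving sequence or to the top sequences, then scaling and log-transforming. The top set was 25 sequences, scaling was ×100 with log10, and ≥100 DNA reads were required.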

cyclic di-GMP [2] = variants of: B1; assay: normalized RNA/DNA level with ligand (relative to sTRSVctl = 100) (log10 (% of sTRSVctl)); HEK293T; ligand: cyclic di-GMP (c-di-GMP-II aptamer); ligand concentration (+) RNA-Seq: 1 mM; higher = less ribozyme self-cleavage, higher mRNA level; settings: reporter: mCherry (pCS4076), ligand present: yes
Method in brief: as §1

GCUGUCACCGAGAAACUGUGAAGUAUAUCUUAAACCUGGGCACUUAAAAGAUAUAUGGAGUUAGUAGUGCAACCUGCUCGGUCUGAUGAGUCCUCUCACGGACGAAACAGC [UCUCAC]
normalized RNA/DNA level without ligand (log10) (cyclic di-GMP [1]): 1.78 ± 0.018
normalized RNA/DNA level with ligand (log10) (cyclic di-GMP [2]): 1.87 ± 0.066

GCUGUCACCGAGAAACUGUGAAGUAUAUCUUAAACCUGGGCACUUAAAAGAUAUAUGGAGUUAGUAGUGCAACCUGCUCGGUCUGAUGAGUCCUCUCAUGGACGAAACAGC [UCUCAU]
normalized RNA/DNA level without ligand (log10) (cyclic di-GMP [1]): 1.638 ± 0.0046
normalized RNA/DNA level with ligand (log10) (cyclic di-GMP [2]): 1.78 ± 0.061

GCUGUCACCGAGAAACUGUGAAGUAUAUCUUAAACCUGGGCACUUAAAAGAUAUAUGGAGUUAGUAGUGCAACCUGCUCGGUCUGAUGAGUCCUCUCAGGGACGAAACAGC [UCUCAG]
normalized RNA/DNA level without ligand (log10) (cyclic di-GMP [1]): 1.75 ± 0.073
normalized RNA/DNA level with ligand (log10) (cyclic di-GMP [2]): 1.89 ± 0.098

GCUGUCACCGAGAAACUGUGAAGUAUAUCUUAAACCUGGGCACUUAAAAGAUAUAUGGAGUUAGUAGUGCAACCUGCUCGGUCUGAUGAGUCCUCUCAAGGACGAAACAGC [UCUCAA]
normalized RNA/DNA level without ligand (log10) (cyclic di-GMP [1]): 1.659 ± 0.013
normalized RNA/DNA level with ligand (log10) (cyclic di-GMP [2]): 1.83 ± 0.12

GCUGUCACCGAGAAACUGUGAAGUAUAUCUUAAACCUGGGCACUUAAAAGAUAUAUGGAGUUAGUAGUGCAACCUGCUCGGUCUGAUGAGUCCCCUCAUGGACGAAACAGC [CCUCAU]
normalized RNA/DNA level without ligand (log10) (cyclic di-GMP [1]): 1.65 ± 0.064
normalized RNA/DNA level with ligand (log10) (cyclic di-GMP [2]): 1.81 ± 0.057

GCUGUCACCGAGAAACUGUGAAGUAUAUCUUAAACCUGGGCACUUAAAAGAUAUAUGGAGUUAGUAGUGCAACCUGCUCGGUCUGAUGAGUCCCCUCACGGACGAAACAGC [CCUCAC]
normalized RNA/DNA level without ligand (log10) (cyclic di-GMP [1]): 1.698 ± 0.0058
normalized RNA/DNA level with ligand (log10) (cyclic di-GMP [2]): 1.85 ± 0.1

GCUGUCACCGAGAAACUGUGAAGUAUAUCUUAAACCUGGGCACUUAAAAGAUAUAUGGAGUUAGUAGUGCAACCUGCUCGGUCUGAUGAGUCCACUCCAGGACGAAACAGC [ACUCCA]
normalized RNA/DNA level without ligand (log10) (cyclic di-GMP [1]): 1.7 ± 0.02
normalized RNA/DNA level with ligand (log10) (cyclic di-GMP [2]): 1.84 ± 0.11

GCUGUCACCGAGAAACUGUGAAGUAUAUCUUAAACCUGGGCACUUAAAAGAUAUAUGGAGUUAGUAGUGCAACCUGCUCGGUCUGAUGAGUCCCCUCCAGGACGAAACAGC [CCUCCA]
normalized RNA/DNA level without ligand (log10) (cyclic di-GMP [1]): 1.68 ± 0.031
normalized RNA/DNA level with ligand (log10) (cyclic di-GMP [2]): 1.83 ± 0.088

GCUGUCACCGAGAAACUGUGAAGUAUAUCUUAAACCUGGGCACUUAAAAGAUAUAUGGAGUUAGUAGUGCAACCUGCUCGGUCUGAUGAGUCCGCUAUCGGACGAAACAGC [GCUAUC]
normalized RNA/DNA level without ligand (log10) (cyclic di-GMP [1]): 1.53 ± 0.045
normalized RNA/DNA level with ligand (log10) (cyclic di-GMP [2]): 1.66 ± 0.13

GCUGUCACCGAGAAACUGUGAAGUAUAUCUUAAACCUGGGCACUUAAAAGAUAUAUGGAGUUAGUAGUGCAACCUGCUCGGUCUGAUGAGUCCGCUAUUGGACGAAACAGC [GCUAUU]
normalized RNA/DNA level without ligand (log10) (cyclic di-GMP [1]): 1.568 ± 0.0067
normalized RNA/DNA level with ligand (log10) (cyclic di-GMP [2]): 1.74 ± 0.12

GCUGUCACCGAGAAACUGUGAAGUAUAUCUUAAACCUGGGCACUUAAAAGAUAUAUGGAGUUAGUAGUGCAACCUGCUCGGUCUGAUGAGUCCGCUCCAGGACGAAACAGC [GCUCCA]
normalized RNA/DNA level without ligand (log10) (cyclic di-GMP [1]): 1.7142 ± 0.0002
normalized RNA/DNA level with ligand (log10) (cyclic di-GMP [2]): 1.83 ± 0.1

GCUGUCACCGAGAAACUGUGAAGUAUAUCUUAAACCUGGGCACUUAAAAGAUAUAUGGAGUUAGUAGUGCAACCUGCUCGGUCUGAUGAGUCCUCUAUUGGACGAAACAGC [UCUAUU]
normalized RNA/DNA level without ligand (log10) (cyclic di-GMP [1]): 1.63 ± 0.034
normalized RNA/DNA level with ligand (log10) (cyclic di-GMP [2]): 1.78 ± 0.094

GCUGUCACCGAGAAACUGUGAAGUAUAUCUUAAACCUGGGCACUUAAAAGAUAUAUGGAGUUAGUAGUGCAACCUGCUCGGUCUGAUGAGUCCUCUAUCGGACGAAACAGC [UCUAUC]
normalized RNA/DNA level without ligand (log10) (cyclic di-GMP [1]): 1.698 ± 0.013
normalized RNA/DNA level with ligand (log10) (cyclic di-GMP [2]): 1.84 ± 0.086

GCUGUCACCGAGAAACUGUGAAGUAUAUCUUAAACCUGGGCACUUAAAAGAUAUAUGGAGUUAGUAGUGCAACCUGCUCGGUCUGAUGAGUCCUCUAUGGGACGAAACAGC [UCUAUG]
normalized RNA/DNA level without ligand (log10) (cyclic di-GMP [1]): 1.7 ± 0.034
normalized RNA/DNA level with ligand (log10) (cyclic di-GMP [2]): 1.85 ± 0.09

GCUGUCACCGAGAAACUGUGAAGUAUAUCUUAAACCUGGGCACUUAAAAGAUAUAUGGAGUUAGUAGUGCAACCUGCUCGGUCUGAUGAGUCCACUCAAGGACGAAACAGC [ACUCAA]
normalized RNA/DNA level without ligand (log10) (cyclic di-GMP [1]): 1.52 ± 0.029
normalized RNA/DNA level with ligand (log10) (cyclic di-GMP [2]): 1.71 ± 0.099

GCUGUCACCGAGAAACUGUGAAGUAUAUCUUAAACCUGGGCACUUAAAAGAUAUAUGGAGUUAGUAGUGCAACCUGCUCGGUCUGAUGAGUCCACUCACGGACGAAACAGC [ACUCAC]
normalized RNA/DNA level without ligand (log10) (cyclic di-GMP [1]): 1.699 ± 0.0095
normalized RNA/DNA level with ligand (log10) (cyclic di-GMP [2]): 1.81 ± 0.092

GCUGUCACCGAGAAACUGUGAAGUAUAUCUUAAACCUGGGCACUUAAAAGAUAUAUGGAGUUAGUAGUGCAACCUGCUCGGUCUGAUGAGUCCACUCAUGGACGAAACAGC [ACUCAU]
normalized RNA/DNA level without ligand (log10) (cyclic di-GMP [1]): 1.61 ± 0.022
normalized RNA/DNA level with ligand (log10) (cyclic di-GMP [2]): 1.81 ± 0.15

GCUGUCACCGAGAAACUGUGAAGUAUAUCUUAAACCUGGGCACUUAAAAGAUAUAUGGAGUUAGUAGUGCAACCUGCUCGGUCUGAUGAGUCCUCUCCAGGACGAAACAGC [UCUCCA]
normalized RNA/DNA level without ligand (log10) (cyclic di-GMP [1]): 1.758 ± 0.012
normalized RNA/DNA level with ligand (log10) (cyclic di-GMP [2]): 1.85 ± 0.12

GCUGUCACCGAGAAACUGUGAAGUAUAUCUUAAACCUGGGCACUUAAAAGAUAUAUGGAGUUAGUAGUGCAACCUGCUCGGUCUGAUGAGUCCGCUCAAGGACGAAACAGC [GCUCAA]
normalized RNA/DNA level without ligand (log10) (cyclic di-GMP [1]): 1.6 ± 0.023
normalized RNA/DNA level with ligand (log10) (cyclic di-GMP [2]): 1.79 ± 0.072

GCUGUCACCGAGAAACUGUGAAGUAUAUCUUAAACCUGGGCACUUAAAAGAUAUAUGGAGUUAGUAGUGCAACCUGCUCGGUCUGAUGAGUCCGCUCAGGGACGAAACAGC [GCUCAG]
normalized RNA/DNA level without ligand (log10) (cyclic di-GMP [1]): 1.79 ± 0.081
normalized RNA/DNA level with ligand (log10) (cyclic di-GMP [2]): 1.87 ± 0.15

GCUGUCACCGAGAAACUGUGAAGUAUAUCUUAAACCUGGGCACUUAAAAGAUAUAUGGAGUUAGUAGUGCAACCUGCUCGGUCUGAUGAGUCCGCUCACGGACGAAACAGC [GCUCAC]
normalized RNA/DNA level without ligand (log10) (cyclic di-GMP [1]): 1.69 ± 0.034
normalized RNA/DNA level with ligand (log10) (cyclic di-GMP [2]): 1.83 ± 0.12

GCUGUCACCGAGAAACUGUGAAGUAUAUCUUAAACCUGGGCACUUAAAAGAUAUAUGGAGUUAGUAGUGCAACCUGCUCGGUCUGAUGAGUCCCCUAUGGGACGAAACAGC [CCUAUG]
normalized RNA/DNA level without ligand (log10) (cyclic di-GMP [1]): 1.48 ± 0.038
normalized RNA/DNA level with ligand (log10) (cyclic di-GMP [2]): 1.7 ± 0.083

GCUGUCACCGAGAAACUGUGAAGUAUAUCUUAAACCUGGGCACUUAAAAGAUAUAUGGAGUUAGUAGUGCAACCUGCUCGGUCUGAUGAGUCCCCUAUUGGACGAAACAGC [CCUAUU]
normalized RNA/DNA level without ligand (log10) (cyclic di-GMP [1]): 1.56 ± 0.048
normalized RNA/DNA level with ligand (log10) (cyclic di-GMP [2]): 1.71 ± 0.097

GCUGUCACCGAGAAACUGUGAAGUAUAUCUUAAACCUGGGCACUUAAAAGAUAUAUGGAGUUAGUAGUGCAACCUGCUCGGUCUGAUGAGUCCACUAUCGGACGAAACAGC [ACUAUC]
normalized RNA/DNA level without ligand (log10) (cyclic di-GMP [1]): 1.622 ± 0.012
normalized RNA/DNA level with ligand (log10) (cyclic di-GMP [2]): 1.79 ± 0.067

GCUGUCACCGAGAAACUGUGAAGUAUAUCUUAAACCUGGGCACUUAAAAGAUAUAUGGAGUUAGUAGUGCAACCUGCUCGGUCUGAUGAGUCCACUAUGGGACGAAACAGC [ACUAUG]
normalized RNA/DNA level without ligand (log10) (cyclic di-GMP [1]): 1.586 ± 0.01
normalized RNA/DNA level with ligand (log10) (cyclic di-GMP [2]): 1.75 ± 0.087

GCUGUCACCGAGAAACUGUGAAGUAUAUCUUAAACCUGGGCACUUAAAAGAUAUAUGGAGUUAGUAGUGCAACCUGCUCGGUCUGAUGAGUCCACUAUUGGACGAAACAGC [ACUAUU]
normalized RNA/DNA level without ligand (log10) (cyclic di-GMP [1]): 1.5 ± 0.047
normalized RNA/DNA level with ligand (log10) (cyclic di-GMP [2]): 1.7 ± 0.11
